{
  "source": "paper PMC5322959",
  "molecular_target": "His6x-tagged hRNF145 RING protein (human) (UniProt Q96MT1)",
  "experiment": "SEC; Superdex 75 10/300 column calibrated with a set of standard proteins; elution volume corresponds to an apparent molecular mass of 39 kDa (predicted weight 18 kD)",
  "data": [
    {"substance": "His6x-tagged hRNF145 RING protein (from UniProt Q96MT1-1 550-663) (domain or fragment)", "values": [
      {"measurement": "stoichiometry N", "value": 2}
    ]}
  ]
}
